B1: HKFY-39 (peptide)
peptide: H(Trt)K(Octanoyl)FYSQNGARF
modifications: not fully specified; printed as His(trt)-Lys(caprylic)-Phe-Tyr-Ser-Gln-Asn-Gly-Ala-Arg-Phe
B2: HKFY-42 (peptide)
peptide: H(Trt)K(Octanoyl)FYHQQARF
modifications: not fully specified; printed as His(trt)-Lys(caprylic)-Phe-Tyr-His-Gln-Gln-Ala-Arg-Phe
B3: HKFY-38 (peptide)
peptide: H(Trt)K(Octanoyl)FYSDQQARF
modifications: not fully specified; printed as His(trt)-Lys(caprylic)-Phe-Tyr-Ser-Asp-Gln-Gln-Ala-Arg-Phe
B4: HKFY-40 (peptide)
peptide: H(Trt)K(Octanoyl)FYSHQQARF
modifications: not fully specified; printed as His(trt)-Lys(caprylic)-Phe-Tyr-Ser-His-Gln-Gln-Ala-Arg-Phe
B5: HKFY-43 (peptide)
peptide: H(Trt)K(Octanoyl)FYQNQARF
modifications: not fully specified; printed as His(trt)-Lys(caprylic)-Phe-Tyr-Gln-Asn-Gln-Ala-Arg-Phe

Square brackets hold non-standard residues; d marks the D form. Ends that are not written are not given here. * marks the point of attachment. 1,3‑difluorobenzhydryl = His with a 1-((2,4-difluorophenyl)(phenyl)methyl) group on the imidazole (N1); 4‑methoxylbenzhydryl = COc1ccc(C(c2ccccc2)*)cc1; 4‑chlorobenzhydryl = Clc1ccc(C(c2ccccc2)*)cc1; Fm = 9H-fluoren-9-yl, c1ccc2c(c1)-c1ccccc1C2*; dPhe(4-Br) = N[C@H](Cc1ccc(Br)cc1)C(=O)O; dPhe(4-Cl) = N[C@H](Cc1ccc(Cl)cc1)C(=O)O; dPhe(4-Me) = Cc1ccc(C[C@@H](N)C(=O)O)cc1; Trt = c1ccc(C(c2ccccc2)(c2ccccc2)*)cc1; dPhe(4-F) = N[C@H](Cc1ccc(F)cc1)C(=O)O; Dmt = Cc1cc(O)cc(C)c1C[C@H](N)C(=O)O; Benzhydryl = c1ccc(C(c2ccccc2)*)cc1; Palmitoyl = CCCCCCCCCCCCCCCC(=O)*; Myristoyl = CCCCCCCCCCCCCC(=O)*; Lauroyl = CCCCCCCCCCCC(=O)*; Decanoyl = CCCCCCCCCC(=O)*; Octanoyl = CCCCCCCC(=O)*; SO3H = O=S(=O)(O)*; Bn = c1ccc(C*)cc1

In this test the target is T1, GPR39 (G protein-coupled receptor 39) (Homo sapiens (Human), UniProt O43194 1-453).
T1 sequence: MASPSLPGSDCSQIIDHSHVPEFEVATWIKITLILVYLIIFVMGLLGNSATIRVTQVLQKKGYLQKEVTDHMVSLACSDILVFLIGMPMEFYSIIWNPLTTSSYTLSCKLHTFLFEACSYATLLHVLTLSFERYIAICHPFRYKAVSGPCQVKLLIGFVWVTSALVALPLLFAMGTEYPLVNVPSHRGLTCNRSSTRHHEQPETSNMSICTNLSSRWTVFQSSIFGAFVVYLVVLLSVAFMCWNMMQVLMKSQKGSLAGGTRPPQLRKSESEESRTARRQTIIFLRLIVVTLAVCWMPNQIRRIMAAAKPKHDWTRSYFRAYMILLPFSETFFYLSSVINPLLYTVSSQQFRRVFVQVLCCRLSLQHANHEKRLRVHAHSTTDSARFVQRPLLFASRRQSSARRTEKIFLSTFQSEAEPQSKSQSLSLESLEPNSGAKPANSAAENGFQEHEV
In words: cell-based or functional assay.
For the molecule B1, the “ECmax (-fold induction over basal)” value was 12.1 -fold induction over basal.

As for H(Fm)K(Octanoyl)FY [HKFY-18], the “EC50 (luciferase reporter)” value was determined as 2.29 µM and the “ECmax (-fold induction over basal)” value was 10 -fold induction over basal.

For H(phenethyl)K(Octanoyl)FY [HKFY-19], the “EC50 (luciferase reporter)” value was determined as 24.6 µM and the “ECmax (-fold induction over basal)” value is 18 -fold induction over basal.

Regarding H(3,3‑diphenylethyl)K(Octanoyl)FY [HKFY-17], the “EC50 (luciferase reporter)” value is 8.12 µM and the “ECmax (-fold induction over basal)” value is 20 -fold induction over basal.

For the molecule H(Benzhydryl)K(Octanoyl)[dPhe(4-Me)][Dmt] [HKFY-36], the “EC50 (luciferase reporter)” value amounted to 0.15 µM and the “ECmax (-fold induction over basal)” value was 9.9 -fold induction over basal.

H(adamantan‑1‑yl)K(Octanoyl)FY [HKFY-23]: the “EC50 (luciferase reporter)” value amounted to 2.6 µM and the “ECmax (-fold induction over basal)” value is 15 -fold induction over basal.

On to H(Trt)K(Octanoyl)[dPhe(4-F)]Y [HKFY-28], for which the “EC50 (luciferase reporter)” value is 0.074 µM and the “ECmax (-fold induction over basal)” value was 22.9 -fold induction over basal.

For H(Trt)K(Decanoyl)FY [HKFY-24], the “EC50 (luciferase reporter)” value amounted to 0.24 µM and the “ECmax (-fold induction over basal)” value is 7.03 -fold induction over basal.

For the molecule H(Trt)K(Palmitoyl)FY [HKFY-27], the “EC50 (luciferase reporter)” value worked out at 0.56 µM and the “ECmax (-fold induction over basal)” value is 20.4 -fold induction over basal.

In the case of H(1,3‑difluorobenzhydryl)K(Octanoyl)[dPhe(4-Me)]Y [HKFY-32], the “EC50 (luciferase reporter)” value amounted to 0.002 µM and the “ECmax (-fold induction over basal)” value was 21.5 -fold induction over basal.

Turning to H(Bn)K(Octanoyl)FY [HKFY-3], the “EC50 (luciferase reporter)” value came out at 4.13 µM and the “ECmax (-fold induction over basal)” value is 9.2 -fold induction over basal.

Regarding H(Trt)K(Myristoyl)FY [HKFY-26], the “EC50 (luciferase reporter)” value was found to be 0.28 µM and the “ECmax (-fold induction over basal)” value was 19.8 -fold induction over basal.

GSH(Trt)K(Octanoyl)FY [HKFY-37]: the “EC50 (luciferase reporter)” value was 1.84 µM and the “ECmax (-fold induction over basal)” value is 16 -fold induction over basal.

Turning to [dH](Trt)K(Octanoyl)[dPhe(4-Me)]Y [HKFY-31], the “EC50 (luciferase reporter)” value is 0.02 µM and the “ECmax (-fold induction over basal)” value is 20.9 -fold induction over basal.

As for H(Benzhydryl)K(Octanoyl)FY [HKFY-33], the “EC50 (luciferase reporter)” value is 0.15 µM and the “ECmax (-fold induction over basal)” value was 20 -fold induction over basal.

As to H(4‑methylbenzhydryl)K(Octanoyl)FY [HKFY-22], the “EC50 (luciferase reporter)” value amounted to 59.8 µM and the “ECmax (-fold induction over basal)” value was 21.3 -fold induction over basal.

Take [dH](Trt)K(Octanoyl)FY [HKFY-4]: the “EC50 (luciferase reporter)” value worked out at 0.13 µM and the “ECmax (-fold induction over basal)” value is 16.8 -fold induction over basal.

Regarding H(Benzhydryl)K(Octanoyl)[dPhe(4-Me)]Y(SO3H) [HKFY-35], the “EC50 (luciferase reporter)” value was determined as 0.28 µM and the “ECmax (-fold induction over basal)” value was 18.9 -fold induction over basal.

B2: the “EC50 (luciferase reporter)” value came out at 1.58 µM and the “ECmax (-fold induction over basal)” value was 11.8 -fold induction over basal.

H(Trt)K(Lauroyl)FY [HKFY-25]: the “EC50 (luciferase reporter)” value is 0.63 µM and the “ECmax (-fold induction over basal)” value was 7.72 -fold induction over basal.

On to B3, for which the “EC50 (luciferase reporter)” value turned out to be 3.5 µM and the “ECmax (-fold induction over basal)” value was 16.5 -fold induction over basal.

Take H(4‑methoxylbenzhydryl)K(Octanoyl)FY [HKFY-20]: the “EC50 (luciferase reporter)” value was 159 µM and the “ECmax (-fold induction over basal)” value was 20.3 -fold induction over basal.

On to H(4‑chlorobenzhydryl)K(Octanoyl)FY (not fully specified) [HKFY-21], for which the “EC50 (luciferase reporter)” value worked out at 136 µM and the “ECmax (-fold induction over basal)” value is 18.3 -fold induction over basal.

B4: the “EC50 (luciferase reporter)” value is 1.3 µM and the “ECmax (-fold induction over basal)” value was 13.4 -fold induction over basal.

Turning to B5, the “EC50 (luciferase reporter)” value is 1.21 µM and the “ECmax (-fold induction over basal)” value was 12.1 -fold induction over basal.

In the case of H(Trt)K(Octanoyl)FYQNGARF [HKFY-41], the “EC50 (luciferase reporter)” value worked out at 9.55 µM and the “ECmax (-fold induction over basal)” value is 12.2 -fold induction over basal.

Turning to H(Trt)K(Octanoyl)[dPhe(4-Me)]Y [HKFY-30], the “EC50 (luciferase reporter)” value is 0.008 µM and the “ECmax (-fold induction over basal)” value is 23.9 -fold induction over basal.

Take H(Trt)K(Octanoyl)[dPhe(4-Br)]Y [HKFY-29]: the “EC50 (luciferase reporter)” value was found to be 0.31 µM and the “ECmax (-fold induction over basal)” value is 26.8 -fold induction over basal.

As to H(Trt)[dK](Octanoyl)[dPhe(4-Cl)]Y [HKFY-16], the “EC50 (luciferase reporter)” value was found to be 0.24 µM and the “ECmax (-fold induction over basal)” value was 27.9 -fold induction over basal.

Source of the values: patent US20230212222A1 (ANYGEN CO., LTD., priority 2020, published 2023).
